The labels stand for the following.
B3: defense-associated sirtuin2 (DSR2) from Bacillus subtilis 29R (enzyme, UniProt P0DXN8 1-1005, looked up)
chain: MVKVDLESKRYGEKLKEVFLMLDNNVVECIKEITESSRNGKLVFFVGAGVSTLSDYPQWWRLVDKYHEELYGSPKKGNYSSDEYLRIPQIFYNVKGEMAFDGILKDFFQVDKPTNPIHDKILAMNPAHVITTNYDNLIDTACWKRGKYFSVISAEEDVANATSSRYLLKVHGDFRKGFKGENVVLKEDDYLNYDQNYPLISNLMKTIIATHTIVFIGYGLGDYNINMLLNWVRKLQKDSFHKPFFIRTDPSPIENETLIYYENKGLRIIDAASLIDSNEYDYLERYSAVMDLLIESQENKFITKDDEVIDYIYGKISPLFALQYIRKIDLKHVFEYDYHFEVNGTVVRHKNKGFGYMERFFELKESCDERSKLSKKQYERFNALFNFFEKNGVICMAKDAGTLNTSIEINSLAYHGKYDVMKKFIEEQSVSIEDDYKKAFFLACLGRWEESYDLYSNIILNSIDESNGCVYYLSQINRYRIYQSITQAVTQFNGLGLLTFGRHYKPFTDEFLARIEREMTNFNIDDLFNGMPFEFQKKYKILEFLSDNQFLYDDTVKLFELTNKVRSEMSEGSYSFGMSSDIVVLLRLYDNLRFLYENCLWSVSFHEFHQYIRNSMSLLIEKAEYERTRDIDELGFSFFGKKSGFFMEYYDFVNISRHFKIDDIKNLERSCSIDKIRFGEQEKIEEYLVGIAEEITKQFSANGMNVVFYTQFISEAKAALYFAKYVKLSEEGLGKIVKALLFYFPERDLDIGKRYVWLERLTKCNELPKSIISIIDDFLVLQAEKHIDQNYSEVSSNGLYSRDYGALIKHFEKNFISKRLSEITLCLTQDKQKQIDFLFKLLPLLSTNAKSHLLSFKSVENINDLMNGIRIGLIDEFTPEHEELIIEYLETRKVNYIVEKEKGIQTFSSNDYMSTFGIWYFLEEINNSKMEEFIGMDDQYDFFVDPENFDYKKFIPSWLKNYNDKLLGKIAGNKHMKHHVIEVLKERVKNSNDKRYLEILMNYFI
notes: DSR2 from Bacillus subtilis 29R, WP_029317421; SIR2 domain residues 1 to 297, MID 297 to 627, CTD 627 to 1005; Cloned into pET28a; tag not cleaved (purified directly by SEC); For MST the protein was fluorescently labelled with the Monolith Protein Labeling Kit RED-NHS second generation; also called DSR2^WT; His-tag DSR2; source: E. coli BL21(DE3), purified (Ni-NTA, size-exclusion gel filtration)

Data set [1] addresses B3. The data set can be described thus: MST; DSR2 fluorescently labelled (RED-NHS), 100 nM, mixed with twofold dilutions of TTP or DSAD1; 10 mM phosphate-buffered saline, 0.05% Tween 20; 20 min at room temperature; Monolith NT.115; triplicate. The following applies: both partners purified.
The target of data set [2] is B3. The data set is described as follows: cryo-EM structure; purified DSR2 or its complex with DSAD1 or TTP (formed at a molar ratio of 1:3, on ice, purified by gel filtration), 1.0 mg/ml on Quantifoil grids. Conditions: both partners purified. (In general: SEC sorts molecules by how far they enter the pores of the column.)
Data set [3] concerns the molecule itself. The description is as above.

Broadly, the Kd is the constant that tells how readily two partners part at equilibrium. As usually defined, the stoichiometry N is the number of molecules, sites or subunits per partner or assembly.

B1: DSR anti-defense 1 (DSAD1) from phage phi3T/SPbeta (natural protein)
chain: KDTGATHDLVYHSKINTFVWDVEFDIVLSDSKELNKCYFVKCFNPYRINGKCDFAVSSIDIFSEGKRLLIENEFNFKITKAVHVATSKDVTEIVLHLSERISSPFPIVKEVVYLD
notes: DSAD1 from phage phi3T/SPbeta, WP_004399562; source: E. coli BL21(DE3), purified (Ni-NTA, TEV cleavage, SEC); not shown: His-tag, N-terminal, cleaved; Trx-tag, N-terminal, cleaved
On to B1, for which the Kd in data set [1] amounted to 0.0404 µM. The “stoichiometry N” value in data set [2] was 0.5 DSAD1:DSR2.

B2: monomeric tail tube protein (TTP) of phage SPR (natural protein)
chain: MKTVIQDTADVYFKRKSDGKLVFTAEAQTASFSQAISEEKLRGGIGNKPLYILKSEKEINLTVKNAFFDLEWLAMTQGETIQEETKVKVFDREHGLIVDDTNKVTLKGKPVSDVTFYNKKGLTYKIAVSTDGTYTIPTAFAAAKDKLTAVYQIEKVGRRLAIKASKFSERYEVEYRTIAYNPDTEEVYSDIYIQFPNVSPSGEFEMSLENGNALAPEIKFEALADTDTDEMAVVIEASRDENTAAPVEDTTGSTQSSDLGGTTE
notes: tail tube protein (TTP) from phage SPR, WP_010328117; residues 1 to 73 and 189 to 263 seen in the complex structure; also called Mono TTP; monomeric TTP; source: E. coli BL21(DE3), purified (Ni-NTA, TEV cleavage, SEC; monomeric fraction); not shown: His-tag, N-terminal, cleaved; Trx-tag, N-terminal, cleaved
For B2, in data set [1], the Kd was 0.655 µM.
Take B3: the “stoichiometry N” value in data set [3] was determined as 4.

Source of the values: article PMC11290490, “Structural insights into activation mechanisms on NADase of the bacterial DSR2 anti-phage defense system” (Science Advances, 2024).
